Data on five molecules can be found in patent US20250034275A1 (CHIA TAI TIANQING PHARMACEUTICAL GROUP, published 2025).

Substitutions are numbered along the chain they refer to.

For assay [1], the target named is human Trop-2 (on the surface of human cell lines) (human) (UniProt P09758). Kind of assay: flow cytometry, PC-3 cells, isotype control at 3 ug/mL (background). In general terms: In flow cytometry, cells or beads pass a laser one at a time.
For assay [2] the target is unchanged. Kind of assay: flow cytometry, HCC38 cells, isotype control at 3 ug/mL (background).
For assay [3] the target is unchanged. Kind of assay: flow cytometry, HUVEC cells, isotype control at 3 ug/mL (background).
Assay [4] has the same target. Put plainly: flow cytometry, Capan-1 cells, isotype control at 3 ug/mL (background).
The target is the same in assay [5]. Kind of assay: flow cytometry, HCC1806 cells, isotype control at 3 ug/mL (background).
Assay [6] has the same target. Kind of assay: flow cytometry, OVCAR-3 cells, isotype control at 3 ug/mL (background).
Assay [7] has the same target. Kind of assay: flow cytometry, NCI-H322 cells, isotype control at 3 ug/mL (background).
Assay [8] addresses T1, human Trop-2 (on the surface of human cell lines) (human, UniProt P09758 27-323).
T1 sequence: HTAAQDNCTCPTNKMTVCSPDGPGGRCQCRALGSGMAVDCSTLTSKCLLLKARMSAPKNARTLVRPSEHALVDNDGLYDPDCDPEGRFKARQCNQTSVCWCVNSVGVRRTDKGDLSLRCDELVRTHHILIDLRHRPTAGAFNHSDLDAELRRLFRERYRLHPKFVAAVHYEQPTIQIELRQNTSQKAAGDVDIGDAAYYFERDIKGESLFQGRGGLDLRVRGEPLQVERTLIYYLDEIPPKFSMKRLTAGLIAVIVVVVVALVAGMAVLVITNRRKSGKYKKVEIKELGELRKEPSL
Kind of assay: cell-based or functional assay.

Assay [9] addresses T1, human Trop-2 (on the surface of human …). Kind of assay: cell-based or functional assay. The source holds these as a separate data set.
Assay [10] shares this target. Put plainly: flow cytometry, HCC38 cells. The method, then: (§1) Tumor cells expressing Trop-2 were prepared into a cell suspension (0.5-1×10⁶ cells/mL) using the FACS buffer (Miltenyi Biotec, 130-091-221), and the cell suspension was added to a 96-well V-bottom plate at 100 μL/well. After centrifugation and removal of the supernatant, the test antibodies diluted with the FACS buffer to different concentrations (0.006 nM-100 nM) were each added at 50 μL/well. The mixture was incubated in the dark in a 4° C. refrigerator for 1 h. The plate was then washed 3 times with the FACS buffer by centrifugation at 300 g, and Alexa Fluor 488 goat anti-human IgG (H+L) (Bio-legend, 409304, 1:500 dilution) at working concentration was added. The mixture was incubated in the dark in a 4° C. refrigerator for 40 min. The plate was then washed 3 times with the FACS buffer by centrifugation at 300 g, the geometric mean fluorescence intensity (MFI) was measured on a Sartorius iQue3 flow cytometer, and the binding EC₅₀ values of the antibodies for tumor cells with different Trop-2 expression levels were calculated

The target is the same in assay [11]. Put plainly: flow cytometry, HCC1806 cells. Here is the method:
as §1

For assay [12] the target is unchanged. Kind of assay: flow cytometry, OVCAR-3 cells. Here is the method:
as §1

Assay [13] deals with T2, human Trop-2-His (human, UniProt P09758 27-274, limits assumed).
T2 construct: by analogy with the macaque construct it is probably the extracellular domain with a His tag; also called Trop-2-His protein
T2 sequence: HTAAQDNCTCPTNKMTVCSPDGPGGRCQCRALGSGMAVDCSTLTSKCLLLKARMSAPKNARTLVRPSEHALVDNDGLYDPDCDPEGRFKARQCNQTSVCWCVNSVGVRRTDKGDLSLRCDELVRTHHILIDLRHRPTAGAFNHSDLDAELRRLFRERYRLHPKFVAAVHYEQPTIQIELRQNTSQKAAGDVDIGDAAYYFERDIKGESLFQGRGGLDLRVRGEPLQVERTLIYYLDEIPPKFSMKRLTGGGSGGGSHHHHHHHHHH
Put plainly: ELISA, plate-coated human Trop-2-His. (In general: In an ELISA, binding on a coated surface is turned into a signal by an enzyme label.)

In the next assay the target is T3, Macaque Trop-2-His (macaque, UniProt P09758 27-274 (human entry)).
T3 construct: Extracellular domain of macaque Trop-2 recombinantly linked to His; also called monkey Trop-2-His protein; monkey Trop-2
T3 chain: T2 sequence with M36V, S67N, I204V
Put plainly: ELISA, plate-coated macaque Trop-2-His. The essentials: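 Plates coated with macaque Trop-2-His were blocked with 2% BSA, then incubated with serially diluted antibodies for 1 h at 37 °C. Bound antibody was detected with HRP goat anti-human IgG (1:5000) and TMB, read at 450 nm, and EC50 values were obtained from fitted binding curves.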

The target of assay [14] is T2, human Trop-2-His. Put plainly: SPR (Biacore 8K), antibody captured, Trop-2-His as analyte. The procedure, abridged: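 Antibody captured on anti-human IgG-coated CM5 chip; human Trop-2-His flowed as analyte with real-time association/dissociation recording, 3M MgCl₂ regeneration. Double-subtracted curves fit to Langmuir 1:1 model giving ka, kd and KD.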

Consider human IgG1 control antibody, for which the MFI came to 8920 in assay [1]; 32400 in assay [2]; 20500 in [3]; 65600 in assay [4]; 16200 in assay [5]; 11800 in assay [6]. The MFI in [7] stood at 21300.

B1: hz-Ab21-2.2 (antibody, human IgG1, kappa, V domains shown)
VH: EVQLVESGGGLVKPGGSLRLSCAASGFTLRNYGVHWVRQAPGKGLEWVGVIWSSGTTDYNAAFISRFTISKDNSKNTLYLQMNSLKTEDTAVYYCTRDGDYDYYTMDYWGQGTLVTVSS
VL: EIVLTQSPATLSLSPGERATLSCRASKSVSTSAYSYIHWYQQKPGQPPRLLIYLTSNLESGIPARFSGSGSGTDFTLTISSLEPEDFAVYYCQHSRELPYTFGQGTKVEIKR
notes: Humanized antibody
In general, EC50 refers to the concentration at which the effect is half-maximal. Read a high EC50 as lower potency in that assay. The Kd is the concentration at which binding is half-saturated. A lower Kd goes with a tighter complex. As a reminder, the koff is a measure of how fast the partners let go of each other. Low readings indicate a long-lived complex, high ones a short-lived complex. The term kon denotes a measure of how fast the partners come together. Lower therefore signals slower complex formation. As for B1, in assay [8], the “ADCC reporter (Jurkat-CD16a v158-NFAT-luciferase), target cell H322, EC50” value (“ADCC reporter … target cell H322, EC50” for short) was found to be 0.15 nM and the “ADCC reporter (Jurkat-CD16a v158-NFAT-luciferase), target cell HCC1806, EC50” value (“ADCC reporter … target cell HCC1806, EC50” for short) came to 0.26 nM. Besides, in [9], the “ADCC, PBMC killing (LDH), H322, EC50” value came out at 0.07 nM; the “ADCC, PBMC killing (LDH), H322, Maximum killing (%)” value (“ADCC … H322, Maximum killing (%)” below) stood at 51.6%; the “ADCC, PBMC killing (LDH), HCC1806, EC50” value stood at 0.18 nM; the “ADCC, PBMC killing (LDH), HCC1806, Maximum killing (%)” value (from here on “ADCC … HCC1806, Maximum killing (%)”) turned out to be 40.6%. The same molecule gave a concentration giving a half-maximal response (EC50) in assay [10] of 0.66 nM. Moreover, in [11], the concentration for a half-maximal effect (EC50) was 1.18 nM. The 50% effective concentration (EC50) in [12] came out at 0.8 nM. The molecule further gave an EC50 with human Trop-2-His [13] of 0.223 nM. In addition, the concentration for a half-maximal effect (EC50) with Macaque Trop-2-His was 0.081 nM. Besides, in the assay with human Trop-2-His [14], the Kd worked out at 1.33 nM, the dissociation rate constant (koff) turned out to be 0.000611 s⁻¹ and the kon was 460000 M⁻¹ s⁻¹.

B2: hz-Ab35-2.1 (antibody, human IgG1, kappa, V domains shown)
VH: QVQLVQSGAEVKKPGASVKVSCKASGYTFTSSDINWVRQRPGQGLEWMGWIYPRDGSKKYAQKFQGRVTMTVDTSTSTVYMELSSLRSEDTAVYYCATRFATVVSNYGLDPWGQGTLVTVSS
VL: EIVLTQSPATLSLSPGERATLSCSASSSVNYIYWYQRKPGQAPRLLIYDTSNLASGIPARFSGSGSGTDYTLTISSLEPEDFAVYYCQQWNSYPLTFGQGTKVEIKR
notes: Humanized antibody
On to B2, for which, in assay [8], the “ADCC reporter … target cell H322, EC50” value was 0.1 nM and the “ADCC reporter … target cell HCC1806, EC50” value was found to be 0.23 nM. Further, in [9], the “ADCC, PBMC killing (LDH), H322, EC50” value is 0.02 nM; the “ADCC … H322, Maximum killing (%)” value came to 51.3%; the “ADCC, PBMC killing (LDH), HCC1806, EC50” value came out at 0.03 nM; the “ADCC … HCC1806, Maximum killing (%)” value is 35.2%. For the same molecule, the EC50 in assay [10] turned out to be 0.89 nM. In addition, the EC50 in assay [11] is 0.76 nM. The same molecule had an EC50 in assay [12] of 0.9 nM. The EC50 in the assay with human Trop-2-His [13] was determined as 0.055 nM. The molecule further came in with a concentration giving a half-maximal response (EC50) with Macaque Trop-2-His of 0.056 nM. In the assay with human Trop-2-His [14], this molecule returned a Kd of 0.444 nM, a koff of 0.000194 s⁻¹ and a kon of 436000 M⁻¹ s⁻¹.

B3: hz-Ab35-2.2 (antibody, human IgG1, kappa, V domains shown)
VH: B2 VH with A61N, Q62E, Q65K, T98R
VL: B2 VL
notes: Humanized antibody
With B3, in assay [8], the “ADCC reporter … target cell H322, EC50” value is 0.11 nM and the “ADCC reporter … target cell HCC1806, EC50” value was determined as 0.26 nM. In addition, in assay [9], the “ADCC, PBMC killing (LDH), H322, EC50” value worked out at 0.01 nM; the “ADCC … H322, Maximum killing (%)” value amounted to 51.4%; the “ADCC, PBMC killing (LDH), HCC1806, EC50” value is 0.02 nM; the “ADCC … HCC1806, Maximum killing (%)” value was 35.9%. The same molecule had an EC50 in assay [10] of 0.91 nM. This molecule also returned an EC50 in [11] of 0.58 nM. This molecule also registered an EC50 in [12] of 0.88 nM. This molecule also displayed an EC50 with human Trop-2-His [13] of 0.054 nM. Besides, the response in the assay with Macaque Trop-2-His was half-maximal at 0.05 nM (EC50). Further, in the assay with human Trop-2-His [14], the dissociation constant (Kd) stood at 8.82 nM, the koff amounted to 0.00357 s⁻¹ and the kon is 405000 M⁻¹ s⁻¹.

B4: hz-Ab35-2.3 (antibody, human IgG1, kappa, V domains shown)
VH: B2 VH with A61N, Q62E, Q65K
VL: B2 VL
notes: Humanized antibody
As to B4, in [8], the “ADCC reporter … target cell H322, EC50” value was 0.11 nM and the “ADCC reporter … target cell HCC1806, EC50” value stood at 0.21 nM. In [9], the “ADCC, PBMC killing (LDH), H322, EC50” value came out at 0.02 nM; the “ADCC … H322, Maximum killing (%)” value came out at 50.3%; the “ADCC, PBMC killing (LDH), HCC1806, EC50” value was determined as 0.03 nM; the “ADCC … HCC1806, Maximum killing (%)” value is 35.7%. The same molecule came in with an EC50 in assay [10] of 0.91 nM. In assay [11], this molecule came in with a concentration giving a half-maximal response (EC50) of 0.61 nM. Besides, in [12], the half-maximal effective concentration (EC50) is 0.74 nM. The molecule also displayed a 50% effective concentration (EC50) in the assay with human Trop-2-His [13] of 0.065 nM. The same molecule registered an EC50 with Macaque Trop-2-His of 0.031 nM. In the assay with human Trop-2-His [14], this molecule came in with an equilibrium dissociation constant (Kd) of 0.675 nM, an off-rate constant (koff) of 0.000281 s⁻¹ and a kon of 416000 M⁻¹ s⁻¹.
